For this series the following is noted: Aspergillus oryzae (strain ATCC 42149 / RIB 40), Thermal, DSC, whole UniProt chain shown.

As a reminder, the Tm is the temperature at the midpoint of the melting transition.

B1: Guanyl-specific ribonuclease T1 wild type, P00651 (protein)
chain: MMYSKLLTLTTLLLPTALALPSLVERACDYTCGSNCYSSSDVSTAQAAGYQLHEDGETVGSNSYPHKYNNYEGFDFSVSSPYYEWPILSSGDVYSGGSPGADRVVFNENNQLAGVITHTGASGNNFVECT
On to B1, for which the unfolding free energy runs as follows: (pH 2.8, 17.1 °C, glycine 10 mM) 5.6 kcal/mol; (pH 2.8, 21.1 °C, glycine 10 mM) 4.9 kcal/mol; (pH 2.8, 24.9 °C, glycine 10 mM) 4.3 kcal/mol; (pH 2.8, 25 °C, glycine 10 mM) 4.3 kcal/mol; (pH 2.8, 27.8 °C, glycine 10 mM) 3.7 kcal/mol; (pH 3, 25 °C, glycine 10 mM) 5.2 kcal/mol. Besides, the unfolding free energy is 6.7 kcal/mol (pH 3.6, 25 °C, acetate 10 mM); 7.2 kcal/mol (pH 4, 25 °C, acetate 10 mM); 8.1 kcal/mol (pH 5, 25 °C, acetate 10 mM); 8.5 kcal/mol (pH 6, 25 °C, MOPS or HEPES 10 mM). For the same protein, the melting temperature (Tm) runs as follows: (pH 3, glycine 10 mM) 49.1 °C; (pH 5, acetate 10 mM) 58.6 °C; (pH 6, MOPS or HEPES 10 mM) 60.3 °C; (pH 7, MOPS or HEPES 10 mM) 61.8 °C. Further, the “unfolding enthalpy (calorimetric)” value reads like this: (pH 3, glycine 10 mM) 82.7 kcal/mol; (pH 5, acetate 10 mM) 99.1 kcal/mol; (pH 6, MOPS or HEPES 10 mM) 101 kcal/mol; (pH 7, MOPS or HEPES 10 mM) 102 kcal/mol.
